# Experimental data reported in patent US20160017055A1 (Takeda / Millennium, published 2016).
# B1: X115-F02 (antibody, human IgG1, kappa, V domains shown)
# VH: EVQLLESGGGLVQPGGSLRLSCAASGFTFSHYIMMWVRQAPGKGLEWVSGIYSSGGITVYADSVKGRFTISRDNSKNTLYLQMNSLRAEDTAVYYCAYRRIGVPRRDEFDIWGQGTMVTVSS
# VL: DIQMTQSPSTLSASVGDRVTITCRASQSISSWLAWYQQKPGKAPKLLIYKASTLESGVPSRFSGSGSGTEFTLTISSLQPDDFATYYCQQYNTYWTFGQGTKVEIKR
# Molecular target: T1, plasma kallikrein Mutant 2 (catalytic domain; R551A, Q553A, Y555A, T558A, R560A) (human, UniProt P03952 391-638)
# T1 construct: Mutations in a subsite of the active site (printed 'S subsite')
# Test: Ki,app; inhibition of PKal catalytic domain activity, Morrison fit
# Experimental: Briefly, PKal and a Fab at various concentrations are incubated together for 1 hour at 30° C. A substrate peptide (cleavable by PKal) is then added to this PKal-Fab mixture. The rate of substrate peptide cleavage/proteolysis is then measured, and plotted against the concentrations of the Fab. This plot is then fit to the Morrison equation, which calculates the K_{i,app} value.
# The inhibitory activity of X₁₁₅-F02 against the wild-type PKal and the mutants were carried out using the method described in Example 2 above and the K_{i,app} values were determined.
# T1 sequence (P03952 391-638 C503S/R551A/Q553A/Y555A/T558A/R560A limits assumed): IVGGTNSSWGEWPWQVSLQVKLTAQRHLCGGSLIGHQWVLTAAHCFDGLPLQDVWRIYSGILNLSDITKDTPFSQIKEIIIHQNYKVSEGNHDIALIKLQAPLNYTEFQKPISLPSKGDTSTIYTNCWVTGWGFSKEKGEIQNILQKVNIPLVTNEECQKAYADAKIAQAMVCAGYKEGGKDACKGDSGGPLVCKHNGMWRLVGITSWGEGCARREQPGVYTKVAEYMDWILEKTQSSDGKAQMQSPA
binder,measurement,value
B1,"fold reduction of inhibitory potency (Ki,app) against wild-type PKal",~65 fold
